From patent US20180312557A1, “Leg1 Protein, Leg1 Gene, and Uses and Drugs thereof” (ZHEJIANG UNIVERSITY, priority 2016, published 2018)

What was measured:
[1] = target: T1, EGFR (Mus musculus, UniProt Q01279); experiment: EGFR pulled down with mLeg1-Re from liver after intragastric administration (co-immunoprecipitation); type: in vivo; conditions: liver of mLeg1Δ/Δ mice, two hours after the intragastric administration
T1 construct: from tissue; host or cells: liver of mLeg1^Δ/Δ mice
Source text: (§1) In order to further verify this hypothesis, the inventors administered the mLeg1-Re protein to the mLeg1^Δ/Δ mice by intragastric administration, and detected, by the method of co-immunoprecipitation, whether the mLeg1-Re protein could reach the liver and bind to EGFR in the liver.

[2] = tested on: Akt phosphorylation of the HepG2 cells; experiment: Akt phosphorylation of HepG2 cells incubated with recombinant mLeg1-Re, alone or with wild-type mLeg1; type: cell-based, human
Method: 23.3 The extracted recombinant protein mLeg1-Re and the wild type mLeg1 protein were used to incubate the HepG2 cells, and then the Akt phosphorylation level of the HepG2 cell was detected. As to the details, reference can be made to step 18.2.2.
The partially purified wild-type mLeg1 protein (50 ng) was mixed with excess mLeg1-Re protein (500 ng) for 10 minutes, and then used to incubate HepG2 cell for 10 minutes, and then the Akt phosphorylation level was detected in these cells. […] It is highly likely attributed to the fact that the mLeg1-Re protein is also capable of competitively binding to the EGFR, thereby blocking the ability of the wild-type mLeg1 to bind to the EGFR and activate downstream Akt.

[3] = Body weight increase of wild type mice on high-fat diet with intragastric mLeg1-Re; type: in vivo, mouse; conditions: 20 μg intragastric every day, one month
Method: 23.4 10-weeks old wild type mice having the similar body weight (t1) were randomly divided into 3 groups with 3 to 4 mice in each group. The wild type mice were fed with high-fat diet and intragrastric administration with 20 μg of mLeg1-Re protein every day, which served as mLeg1-Re administration experimental group. Another group of wild type mice of the same age were fed with the same high-fat diet and intragrastric administration with the same amount of bovine serum albumin (BSA) every day, which served as BSA administration control group. The left group of wild type mice at the same age were fed with the same standard chow diet, which served as another control group. One month later, the body weight (t2) of these mice were measured, and the results were represented by increased body weight […]. The experiment was repeated twice, and the final body weight changes (i.e., increased body weight) were averaged.

[4] = mLeg1-Re protein in liver of mLeg1Δ/Δ mice after intragastric administration (co-immunoprecipitation); type: in vivo, mouse; conditions: two hours after the intragastric administration
Source text: as §1

B1: mLeg1-Re protein: modification-defective recombinant mLeg1 protein expressed in an Escherichia coli expression system (protein)
chain: EVSDSSDPYPPLWEDSPEQLSDYMMEDGNYIINPWVYTDRMGMYRILLEETAMYFAKYGPENEQNLLWGLPLQFGWQYQSGRLADPTGMTDCGNELNESLCVSVDSWWADINYYLSVIPFLAAVDSGITGISPNQITILPPPKDQMRFCYNVSDCQSAVPGTMNRWRDFFQYMQLNSSDFDGLLNYLWEAHASSLDYPTSAFGDRYNFYSEKEANFEENWAIAVNYLAAARLPTTQNRTYSFQRGLPPRVLVDTDIAPFIPDFTPLQNEVLVSLKLLGDTDRNSGSLSLTLWENLMSTKLARTLFLKAFEEFLATSS
modifications: left off: small tags and cut ends
notes: modification-defective recombinant mLeg1 protein expressed in an Escherichia coli expression system
- EGFR in the protein pulled down by the mLeg1 antibody [1]: significant EGFR protein level could be detected
- ability to induce Akt phosphorylation ([2]; HepG2 incubated with mLeg1-Re alone): lost the ability to induce Akt phosphorylation
- ability of the mLeg1 protein to activate Akt ([2]; HepG2 incubated with mLeg1-Re for 10 minutes first, then mLeg1 added): completely inhibited
- inhibition of mLeg1-induced Akt phosphorylation ([2]; mLeg1 (50 ng) mixed with excess mLeg1-Re (500 ng) for 10 minutes, then HepG2 10 minutes): cannot inhibit the functions of the mLeg1 protein
- body weight increase compared with BSA control group [3]: significantly lower
- body weight increase compared with mice fed standard chow diet [3]: almost the same as that of the mice fed with standard chow diet
- mLeg1-Re protein in the liver [4]: could be detected in the liver
